Source: patent US20140087995A1 (published 2014)
Numbered stars: 1 amine (or outer) side, 2 acyl side, 3 side chain; on linkers, the order of the positions; unused ones are H or OH. Bridge positions count the residues as written; N and C are the ends. Square brackets hold non-standard residues; d marks the D form. Side chains are listed from the residue outwards. Ends that are not written are not given here. * marks the point of attachment. C20 diacid = O=C(O)CCCCCCCCCCCCCCCCCCC(=O)*; γGlu = O=C(O)[C@H](CCC(=O)[*:2])N[*:1]

T1: rat amylin receptor (rat calcitonin receptor + rat RAMP 3) (rat, UniProt P32214 25-516; Q9JJ73 23-147)
T1 construct: whole, on cells; Used as membranes prepared from transiently transfected BHK tk'ts 13 cells (Assay VI); also called rAmylin-R; rat amylin 3(a) receptor
T1 sequence (looked up) 1: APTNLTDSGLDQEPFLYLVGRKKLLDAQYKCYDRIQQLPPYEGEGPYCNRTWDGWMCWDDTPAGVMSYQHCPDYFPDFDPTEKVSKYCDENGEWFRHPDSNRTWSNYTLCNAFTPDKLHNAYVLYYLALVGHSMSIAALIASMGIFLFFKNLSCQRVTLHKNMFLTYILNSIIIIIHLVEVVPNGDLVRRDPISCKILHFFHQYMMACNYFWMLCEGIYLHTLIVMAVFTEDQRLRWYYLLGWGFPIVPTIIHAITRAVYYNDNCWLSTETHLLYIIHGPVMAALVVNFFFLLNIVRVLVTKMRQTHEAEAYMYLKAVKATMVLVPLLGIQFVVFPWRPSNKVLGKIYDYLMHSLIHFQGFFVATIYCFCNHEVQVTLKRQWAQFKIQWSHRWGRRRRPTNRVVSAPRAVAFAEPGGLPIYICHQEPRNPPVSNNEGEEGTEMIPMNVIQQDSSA
T1 sequence (looked up) 2: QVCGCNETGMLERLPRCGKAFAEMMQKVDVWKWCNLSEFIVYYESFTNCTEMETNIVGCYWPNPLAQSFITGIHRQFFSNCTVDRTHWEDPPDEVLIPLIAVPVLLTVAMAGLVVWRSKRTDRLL

T2: rat calcitonin receptor (rat, UniProt P32214 25-516)
T2 construct: whole, on cells; Used as membranes prepared from transiently transfected BHK tk'ts 13 cells (Assay VIII); also called rCTR; rat calcitonin (a) receptor
T2 sequence (looked up): T1 sequence (looked up) 1

T3: human amylin receptor (amylin 3(a) receptor: human calcitonin receptor co-expressed with RAMP-3) (human, UniProt P30988 25-474; O60896 24-148, limits assumed)
T3 construct: whole, on cells; also called hAmylin-R; hAmylinR
T3 sequence (looked up) 1: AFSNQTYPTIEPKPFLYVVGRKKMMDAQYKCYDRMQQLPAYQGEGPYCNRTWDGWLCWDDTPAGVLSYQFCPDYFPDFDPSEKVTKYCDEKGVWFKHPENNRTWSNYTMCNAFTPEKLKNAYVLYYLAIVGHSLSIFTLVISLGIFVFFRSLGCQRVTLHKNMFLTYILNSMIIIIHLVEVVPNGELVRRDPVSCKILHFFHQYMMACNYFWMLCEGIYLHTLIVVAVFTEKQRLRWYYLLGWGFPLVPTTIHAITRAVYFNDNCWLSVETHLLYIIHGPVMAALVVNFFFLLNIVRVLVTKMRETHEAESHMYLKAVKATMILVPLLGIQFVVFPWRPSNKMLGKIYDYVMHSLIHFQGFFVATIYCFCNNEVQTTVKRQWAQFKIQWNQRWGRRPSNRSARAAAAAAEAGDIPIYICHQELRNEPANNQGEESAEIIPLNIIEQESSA
T3 sequence (looked up) 2: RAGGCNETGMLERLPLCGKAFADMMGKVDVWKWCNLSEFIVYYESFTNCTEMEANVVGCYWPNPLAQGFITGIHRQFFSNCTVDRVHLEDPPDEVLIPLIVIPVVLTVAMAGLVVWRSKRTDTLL

B1: N^ε1-[(4S)-4-carboxy-4-[[(4S)-4-carboxy-4-(19-carboxynonadecanoylamino)butanoyl]amino]butanoyl]-[Glu14,Arg17,Pro21,Pro27,Pro34,Glu35,Pro37]-h-amylin (peptide)
peptide: K([γGlu-γGlu-C20 diacid])CNTATCATQRLAEFLRHSSPNFGAIPSSTNVGPETP-NH2
modifications: disulfide 2-7; N-terminus assumed
SMILES: CC[C@H](C)[C@H](NC(=O)[C@H](C)NC(=O)CNC(=O)[C@H](Cc1ccccc1)NC(=O)[C@H](CC(N)=O)NC(=O)[C@@H]1CCCN1C(=O)[C@H](CO)NC(=O)[C@H](CO)NC(=O)[C@H](Cc1c[nH]cn1)NC(=O)[C@H](CCCNC(=N)N)NC(=O)[C@H](CC(C)C)NC(=O)[C@H](Cc1ccccc1)NC(=O)[C@H](CCC(=O)O)NC(=O)[C@H](C)NC(=O)[C@H](CC(C)C)NC(=O)[C@H](CCCNC(=N)N)NC(=O)[C@H](CCC(N)=O)NC(=O)[C@@H](NC(=O)[C@H](C)NC(=O)[C@@H]1CSSC[C@H](NC(=O)[C@@H](N)CCCCNC(=O)CC[C@H](NC(=O)CC[C@H](NC(=O)CCCCCCCCCCCCCCCCCCC(=O)O)C(=O)O)C(=O)O)C(=O)N[C@@H](CC(N)=O)C(=O)N[C@@H]([C@@H](C)O)C(=O)N[C@@H](C)C(=O)N[C@@H]([C@@H](C)O)C(=O)N1)[C@@H](C)O)C(=O)N1CCC[C@H]1C(=O)N[C@@H](CO)C(=O)N[C@@H](CO)C(=O)N[C@H](C(=O)N[C@@H](CC(N)=O)C(=O)N[C@H](C(=O)NCC(=O)N1CCC[C@H]1C(=O)N[C@@H](CCC(=O)O)C(=O)N[C@H](C(=O)N1CCC[C@H]1C(N)=O)[C@@H](C)O)C(C)C)[C@@H](C)O

Tests used:
[1] = biological target: T1, rat amylin receptor (rat calcitonin …); experiment: SPA competition binding, displacement of 125I-rat amylin from membranes of BHK tk'ts 13 cells with rat calcitonin receptor + rat RAMP 3 (Assay VI)
rat calcitonin receptor = biological target: T2, rat calcitonin receptor; experiment: SPA competition binding, displacement of 125I-calcitonin from membranes of BHK tk'ts 13 cells with rat calcitonin receptor (Assay VIII)
[2] = biological target: T3, human amylin receptor (amylin 3(a) …); experiment: SPA competition binding, membranes of Amylin 3(a)/CRE-luc BHK cells, displacement of 125I-rat amylin (Assay V)
In short: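 Membranes from BHK Amylin 3(a)/CRE-luc cells (35 ng/μL final) were mixed with SPA beads and test compounds in 50 mM Hepes pH 7.4 with 1 mM CaCl2, 5 mM MgCl₂, 0.1% OA and 0.02% Tween20. Incubation ran 120 min at 25° C with shaking; IC₅₀ came from one-site competition fitting.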

Row | Binder | IC50 [1] [nM] | IC50 (rat calcitonin receptor) [nM] | IC50 [2] [nM]
1 | K([γGlu-γGlu-C20 diacid])CNTATCATQRLA[dD]FLRHSSPNFGAIPSSTNVGSRTY-NH2 (disulfide 2-7 (inferred), Residue 14 is the D-isomer of Asp) | 1.69 | 536 | 
2 | B1 |  |  | 0.533
